From US20240390486A1

T1: peanut (Arachis hypogaea) allergen Ara h 6 (Arachis hypogaea) (UniProt Q647G9)
T1 sequence: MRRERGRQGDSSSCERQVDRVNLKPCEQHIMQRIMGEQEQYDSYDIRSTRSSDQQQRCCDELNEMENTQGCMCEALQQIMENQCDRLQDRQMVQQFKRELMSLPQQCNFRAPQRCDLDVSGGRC

B1: human IgE mAb 15C2 (antibody, from a related filing, V domains shown)
VH: QVQLVQSESELKKPGASVKISCKASGYDLTKYAMNWVRQAPGQGLEWMGWINTNTAKPTYAQGFTGRFVFSLDTSVRTIYLEISNLKAEDTAIYYCSRDGSGASWGQGTLVTVSS
VL: DIQMTQSPSTLSASVGDRVTITCRASQNIGRWLAWHQQKPGKAPKVLITKASNLESGVPSRFTGSGSGTDFTLTITSLQPDDFATYYCQQYTTYSGTFGQGTRVEIK
B2: human IgE mAb 26A5 (antibody, from a related filing, V domains shown)
VH: QVQLVQSGSELRKPGASVKVSCKASGYTFTKYGMNWVRQAPGQGLEWMGWINTNTAKPTYAQDFTGRFVFSLDTSVNTAYLEISGLKAEDTAVYYCATDGSEGSWGQGTLVTVSS
VL: DIQMTQSPSTLSASVGDRVTITCRASQSIGTWLAWHQQKPGTAPKVLIYKASNLKSGVPSRFSGSGSGTDFTLTISSLQPDDVATYYCQQYNTYSGTFGQGTRVEIK
B3: human IgE mAb 8F3 (antibody, from a related filing, V domains shown)
VH: QLQLQESGPGLVKPSETLSLTCTVSDASIDTPSYFWSWIRQPPGKGLEWIGSIYYTGNKYSNPSLKSRVTMSVDTPKRQFSLRLSSVTAADTAVYYCARYVDYVWLRAFDIWGQGTRVTVSS
VL: EIVLTQSPATLSLSPGERATLSCRASPSAGRFLAWYQQRPGQAPRLLIYDASKRATDTPARFSGSGSGTDFNLTIASLEPEDFAVYYCQHRSNWPLTFGGGTKVEIK
B4: human IgE mAb 1A8 (antibody, from a related filing, V domains shown)
VH: QLQLQESGPGLVKPSETLSLTCSVSDDSISTPSYFWTWIRQPPGKGLEWIASIYYTGTTYYNPSLKSRVTLSVDTPKRQFFLRLSSVTAADTAVYYCARYLDYVWLRAFDVWGQGAMVTVSS
VL: EIVLTQSPATLSLSPGERATLSCRASPSVGRFLAWYQQKPGQAPRLLIYDASQRATDIPARFSASGSGTDFTLTIDSLEPEDFAIYYCQHRSNWPVTFGGGTRVEIK
B5: human IgE mAb 20M10 (antibody, from a related filing, V domains shown)
VH: EVQLVESGGGLVKPGGSLRLSCTVSGFTFNMHSMNWVRQAPGKGLEWVSFISSTSTYIYYPDSVKGRFTVSRDNSKNSLYLQMTSLRAEDTAVYYCVRRGRGGAARALDNWGQGTLVTVSS
VL: SYVLPQTPSLSVAPGQTATISCGGNNTGSKSVHWYQQKPGQAPLLVVYDNSDRPSGIPERFSGSNSGNTATLTLSRVEAEDEADYYCQVWDSTIDHVIFGGGTKLTVL
B6: human IgE mAb 21C10 (antibody, from a related filing, V domains shown)
VH: EVQLVESGGGLVKPGGSLRLSCAASGFILSRSSMSWVRQAPGKGLEWVSYISSTSSHIYYADSLKGRFTISRDNTENSVYLQMSSLRAEDTGVYYCARKTNGAWFLDLWGRGTLVTVSS
VL: QSVLTQPPSVSGAPGQRVTISCTGSSSNIGAGSDVHWYQQFPGSAPHVLIYGNNQRPSGVPDRFSASKSGTSASLAITGLQADDEADYYCQSYDYDLSGSWVFGGGTKLTVL

Target: T1, peanut (Arachis hypogaea) allergen Ara h 6 (Arachis hypogaea)
Assay: EC50 of IgE mAb on allergen, Table 1; method not stated

In order of rising EC50:
1. B6  3.2 ng/mL
2. B3  3.8 ng/mL
3. B4  5 ng/mL
4. B5  5.3 ng/mL
5. B2  10.1 ng/mL
6. B1  31.5 ng/mL
